{
  "source": "paper PMC8125230",
  "about": "“Crystal Structure of Escherichia coli Agmatinase: Catalytic Mechanism and Residues Relevant for Substrate Specificity” (International Journal of Molecular Sciences, 2021)",
  "proteins": {"B1": {"name": "Agmatinase from Escherichia coli (enzyme)", "chain": "MSTLGHQYDNSLVSNAFGFLRLPMNFQPYDSDADWVITGVPFDMATSGRAGGRHGPAAIRQVSTNLAWEHNRFPWNFDMRERLNVVDCGDLVYAFGDAREMSEKLQAHAEKLLAAGKRMLSFGGDHFVTLPLLRAHAKHFGKMALVHFDAHTDTYANGCEFDHGTMFYTAPKEGLIDPNHSVQIGIRTEFDKDNGFTVLDACQVNDRSVDDVIAQVKQIVGDMPVYLTFDIDCLDPAFAPGTGTPVIGGLTSDRAIKLVRGLKDLNIVGMDVVEVAPAYDQSEITALAAATLALEMLYIQAAKKGE", "notes": "Agmatinase (EcAGM), Escherichia coli; wild type; gene cloned into pQE60; residues 11 to 26 of the N-terminal end are modeled in the structure; The hexamer (dimer of trimers) is built by crystal symmetry: 7LOL has one chain and 7LOX three chains in the asymmetric unit; also called EcAGM; E. coli AGM; source: E. coli BL21(DE3), purified (HisTrap HP, S-200 size exclusion)"}},
  "target": "the molecule itself",
  "assay": "crystal structure; sitting drop vapor diffusion at 18 °C; protein 12 mg/mL in 25 mM Tris-HCl pH 8.0, 2 mM MnCl2, 100 mM guanidine chloride; two crystal forms (7LOL at 1.8 Å, 7LOX at 3.2 Å); oligomeric state analysed with PISA",
  "data": [
    {"protein": "B1", "values": [
      {"measurement": "stoichiometry N", "value": 6}
    ]}
  ]
}
